40 molecules from patent publication US20200325187A1 (Genentech, published 2020) can be followed below.

T1: hVEGF-A (8-109) (human, UniProt P15692 214-315)
T1 sequence (looked up): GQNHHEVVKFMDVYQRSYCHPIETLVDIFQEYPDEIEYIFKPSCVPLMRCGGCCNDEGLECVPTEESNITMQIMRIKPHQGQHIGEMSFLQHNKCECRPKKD

T2: LRP6 E1E2 protein (human, UniProt O75581 20-630, limits assumed)
T2 construct: domain: E1E2
T2 sequence (looked up): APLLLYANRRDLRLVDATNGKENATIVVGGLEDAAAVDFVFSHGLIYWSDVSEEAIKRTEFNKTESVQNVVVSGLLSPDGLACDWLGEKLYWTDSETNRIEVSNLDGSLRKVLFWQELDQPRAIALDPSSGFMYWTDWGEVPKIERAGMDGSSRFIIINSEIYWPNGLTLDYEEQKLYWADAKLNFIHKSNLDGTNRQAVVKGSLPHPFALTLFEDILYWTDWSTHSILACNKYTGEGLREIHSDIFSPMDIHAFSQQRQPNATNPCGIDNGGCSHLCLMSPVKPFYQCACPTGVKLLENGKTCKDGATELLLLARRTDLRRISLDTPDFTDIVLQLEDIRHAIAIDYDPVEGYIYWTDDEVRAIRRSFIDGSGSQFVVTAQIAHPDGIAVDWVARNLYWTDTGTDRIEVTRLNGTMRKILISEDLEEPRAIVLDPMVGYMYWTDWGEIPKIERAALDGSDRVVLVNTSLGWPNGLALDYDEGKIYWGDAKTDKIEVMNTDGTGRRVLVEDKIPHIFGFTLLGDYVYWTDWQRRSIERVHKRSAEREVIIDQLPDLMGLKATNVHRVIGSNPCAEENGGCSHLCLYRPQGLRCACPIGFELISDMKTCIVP

The first assay has as its target T1, hVEGF-A (8-109). Briefly: spot phage ELISA. How it is done: (§1) After four rounds of binding selection, individual phage clones were picked and inoculated into 450 μl 2YT media containing 50 µg/ml Carbenecillin and M13-KO7 helper phage in 96-well blocks, which were grown at 37° C. overnight. […] The plates were washed and bound phage was detected with anti-M13-HRP followed by TMB substrate. In these assays, phage binding to BSA alone was tested in parallel to assess background binding. […] Positive clones were subjected to DNA sequence analysis.
(In general: ELISA stands for enzyme-linked immunosorbent assay.)
Turning to GCHMMYDYCKQDSDCLAGCVCEMYDACG (designed binder) [VEGF_CKP3], the ELISA turned out to be 3.1 and the “S/N vs BSA” value stood at 42.9.
On to GCGETVFEQFLWCKQDSDCLAGCVCGPNGFCG (designed binder) [VEGF_CKP2], for which the ELISA came to 3.2 and the “S/N vs BSA” value is 48.1.
For GCETDWYPHQIDCKQDSDCLAGCVCGPNGFCG (designed binder) [VEGF_CKP1], in that order: 0.9 and 16.9.

The next assay addresses T1, hVEGF-A (8-109). Briefly: spot phage ELISA. The source holds these as a separate data set. The method, then:
as §1
On to GCLDRTLNWALYCKQDSDCLAGCVCQMYNSCG (designed binder) [VEGF_CKP7.54], for which the ELISA turned out to be 0.5 and the “S/N vs BSA” value amounted to 9.3.
For GCQDPKLNWAVYCKQDSDCLAGCVCQLFNSCG (designed binder) [VEGF_CKP7.88], in that order: 0.5 and 7.7.
For GCRDLTINWALFCKQDSDCLAGCVCQMFNSCG (designed binder) [VEGF_CKP7.73], in that order: 1.2 and 19.2.
For GCDDPSFDWSVYCKQDSDCLAGCVCRMYDSCG (designed binder) [VEGF_CKP7.2], in that order: 1.2 and 21.5.
Consider GCQDPTVNWAVYCKQDSDCLAGCVCQFYQSCG (designed binder) [VEGF_CKP7.17], for which the ELISA was 0.8 and the “S/N vs BSA” value stood at 13.4.
As to GCEDPTVDWAQYCKQDSDCLAGCVCQMYQSCG (designed binder) [VEGF_CKP7.46], the ELISA came to 0.3 and the “S/N vs BSA” value was 4.9.
Consider GCQDPTFNWAEYCKQDSDCLAGCVCQMYQSCG (designed binder) [VEGF_CKP7.35], for which the ELISA amounted to 0.6 and the “S/N vs BSA” value came out at 10.6.
Turning to GCQDPSLNWADYCKQDSDCLAGCVCQMHQSCG (designed binder) [VEGF_CKP7.50], the ELISA was 0.8 and the “S/N vs BSA” value worked out at 14.3.
Consider GCQDPTLNWATYCKQDSDCLAGCVCQMYQSCG (designed binder) [VEGF_CKP7.43], for which the ELISA amounted to 0.5 and the “S/N vs BSA” value stood at 6.3.
Consider GCWDPTFNWALYCKQDSDCLAGCVCQMYDSCG (designed binder) [VEGF_CKP7.24], for which the ELISA was determined as 0.8 and the “S/N vs BSA” value was 13.4.
With GCLDPSFNWSLYCKQDSDCLAGCVCQMYDSCG (designed binder) [VEGF_CKP7.57], the ELISA is 1 and the “S/N vs BSA” value came out at 17.4.
For GCQDPTFNWAEYCKQDSDCLAGCVCQLYQSCG (designed binder) [VEGF_CKP7.19], in that order: 0.6 and 11.1.
Turning to GCLDPSFDWALYCKQDSDCLAGCVCQLYNSCG (designed binder) [LRP6_CKP7.89], the ELISA came to 0.5 and the “S/N vs BSA” value amounted to 8.1.
In the same order, the values of GCLDPTVNWALFCKQDSDCLAGCVCQHYKTCG (designed binder) [VEGF_CKP7.81] are 1.1 and 18.6.
Consider GCKNPLFNWALYCKQDSDCLAGCVCQLFDSCG (designed binder) [VEGF_CKP7.8], for which the ELISA was found to be 0.5 and the “S/N vs BSA” value is 7.5.
For GCKDTTFNWGLFCKQDSDCLAGCVCQLYQSCG (designed binder) [VEGF_CKP7.78], in that order: 0.7 and 11.8.

The target of a further assay is T1, hVEGF-A (8-109). The experiment in a line: spot phage ELISA. The source holds these as a separate data set. How it is done: as §1
Consider GCDRMQPYWGCKQDSDCLAGCVCQWYKSCG (designed binder) [VEGF_CKP9.11], for which the ELISA turned out to be 1.1 and the “S/N vs BSA” value turned out to be 14.1.

In another assay the target is T2, LRP6 E1E2 protein. Briefly: spot phage ELISA.
Regarding GCNRIRNSCKQDSDCLAGCVCGRGDYCG (designed binder) [LRP6_CKP15], the ELISA was 2.03 and the “S/N vs BSA” value was found to be 26.3.
On to GCSNYVKRCKQDSDCLAGCVCSPGGRCG (designed binder) [LRP6_CKP17], for which the ELISA came out at 3.09 and the “S/N vs BSA” value is 35.9.
For GCVSNRVNKGCKQDSDCLAGCVCGPNGFCG (designed binder) [LRP6_CKP7], in that order: 3.3 and 29.
In the same order, the values of GCRGNIIKCKQDSDCLAGCVCNESRGCG (designed binder) [LRP6_CKP8] are 3.23 and 37.6.
For GCVNRVRGCKQDSDCLAGCVCSGGRDCG (designed binder) [LRP6_CKP2], in that order: 3.41 and 41.6.
On to GCSRNSIKCKQDSDCLAGCVCASGSSCG (designed binder) [LRP6_CKP16], for which the ELISA was 3.36 and the “S/N vs BSA” value stood at 31.1.
In the same order, the values of GCRSGNTIRKRECKQDSDCLAGCVCGGPGGCG (designed binder) [LRP6_CKP9] are 2.97 and 37.6.
In the same order, the values of GCRSNRIRCKQDSDCLAGCVCYGHGDCG (designed binder) [LRP6_CKP11] are 2.65 and 36.8.
For GCRSNKLREARGCKQDSDCLAGCVCGSRQDCG (designed binder) [LRP6_CKP12], in that order: 0.6 and 6.78.
Turning to GCGSNKIRPRCKQDSDCLAGCVCGPNDFCG (designed binder) [LRP6_CKP14], the ELISA amounted to 3.18 and the “S/N vs BSA” value was determined as 43.5.
In the same order, the values of GCGNKIRACKQDSDCLAGCVCRDRVGCG (designed binder) [LRP6_CKP21] are 2.8 and 33.7.
In the same order, the values of GCRTNRVKGGCKQDSDCLAGCVCGPNGFCG (designed binder) [LRP6_CKP1] are 3.23 and 45.5.
In the same order, the values of GCRANRVSGRCKQDSDCLAGCVCGPNGFCG (designed binder) [LRP6_CKP18] are 1.67 and 18.3.
Take GCVNKIKGCKQDSDCLAGCVCGVEGRCG (designed binder) [LRP6_CKP5]: the ELISA came out at 3.04 and the “S/N vs BSA” value was found to be 35.7.
For GCENRTKGCKQDSDCLAGCVCGFRGTCG (designed binder) [LRP6_CKP20], the ELISA amounted to 3.1 and the “S/N vs BSA” value worked out at 38.7.
For GCASSNSIRQGWCKQDSDCLAGCVCGPKSNCG (designed binder) [LRP6_CKP10], in that order: 3.29 and 37.4.
In the same order, the values of GCVNSVKRCKQDSDCLAGCVCSRGVNCG (designed binder) [LRP6_CKP13] are 3.28 and 37.8.
For GCRSVNKICKQDSDCLAGCVCGSSRNCG (designed binder) [LRP6_CKP4], in that order: 2.82 and 25.4.
Consider GCMNHVKARRCKQDSDCLAGCVCGPNGFCG (designed binder) [LRP6_CKP3], for which the ELISA came to 2.93 and the “S/N vs BSA” value stood at 40.2.
For GCANRVKRTSCKQDSDCLAGCVCGPNGFCG (designed binder) [LRP6_CKP22], in that order: 3.43 and 42.9.
